Substitutions are numbered along the chain they refer to.
Key:
Assay in all cases: two-hybrid; LexA-Cdc1 bait (pBTM116 or pBTM116BN) with Gal4 activation domain-Cdc27 prey (pGAD2F-Cdc27) in S. cerevisiae CTY10-5d; ONPG liquid culture beta-galactosidase assay, mean of triplicates, as percent of wild-type Cdc1
Details in all cases: partners not purified
[1] = biological target: T1, Cdc1-E5 (Schizosaccharomyces pombe, UniProt P87324 1-462, Val-MetGlyTyrProVal-Met)
T1 construct: Cdc1, S. pombe, with a pentapeptide inserted after residue 86; source: yeast two-hybrid fusion, in S. cerevisiae CTY10-5d
T1 sequence (looked up): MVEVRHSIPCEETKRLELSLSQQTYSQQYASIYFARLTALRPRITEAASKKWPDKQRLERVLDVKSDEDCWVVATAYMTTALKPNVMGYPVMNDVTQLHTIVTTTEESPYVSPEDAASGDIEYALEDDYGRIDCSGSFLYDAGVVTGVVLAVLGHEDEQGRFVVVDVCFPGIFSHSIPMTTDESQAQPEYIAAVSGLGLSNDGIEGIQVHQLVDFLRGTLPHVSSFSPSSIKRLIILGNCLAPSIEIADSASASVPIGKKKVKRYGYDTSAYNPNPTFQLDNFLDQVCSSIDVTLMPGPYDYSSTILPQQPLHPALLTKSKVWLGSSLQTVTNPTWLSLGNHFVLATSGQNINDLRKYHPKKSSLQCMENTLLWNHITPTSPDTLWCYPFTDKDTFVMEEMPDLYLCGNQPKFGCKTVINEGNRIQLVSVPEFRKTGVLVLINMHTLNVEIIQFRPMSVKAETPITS

[2] = biological target: T2, Cdc1-J6 (Schizosaccharomyces pombe, UniProt P87324 1-462, Tyr-GlyValProHisTyr-Gly)
T2 construct: Cdc1, S. pombe, with a pentapeptide inserted after residue 124; source: yeast two-hybrid fusion, in S. cerevisiae CTY10-5d
T2 sequence (looked up): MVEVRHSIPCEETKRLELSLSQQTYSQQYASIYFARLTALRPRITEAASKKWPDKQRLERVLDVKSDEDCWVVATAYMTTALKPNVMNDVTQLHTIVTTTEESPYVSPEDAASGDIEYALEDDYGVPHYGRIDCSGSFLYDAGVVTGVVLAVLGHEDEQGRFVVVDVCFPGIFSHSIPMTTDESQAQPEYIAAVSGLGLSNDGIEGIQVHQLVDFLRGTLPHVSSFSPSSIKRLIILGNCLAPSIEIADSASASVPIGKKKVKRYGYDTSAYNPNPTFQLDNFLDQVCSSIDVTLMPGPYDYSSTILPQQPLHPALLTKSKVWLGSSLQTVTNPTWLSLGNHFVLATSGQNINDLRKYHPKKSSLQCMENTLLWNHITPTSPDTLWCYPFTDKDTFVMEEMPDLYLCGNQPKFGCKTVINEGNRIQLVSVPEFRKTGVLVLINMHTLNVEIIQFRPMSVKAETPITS

[3] = biological target: T3, Cdc1-A5 (Schizosaccharomyces pombe, UniProt P87324 1-462, Asn328Ala)
T3 construct: Cdc1, S. pombe, point mutant; source: yeast two-hybrid fusion, in S. cerevisiae CTY10-5d
T3 sequence (looked up): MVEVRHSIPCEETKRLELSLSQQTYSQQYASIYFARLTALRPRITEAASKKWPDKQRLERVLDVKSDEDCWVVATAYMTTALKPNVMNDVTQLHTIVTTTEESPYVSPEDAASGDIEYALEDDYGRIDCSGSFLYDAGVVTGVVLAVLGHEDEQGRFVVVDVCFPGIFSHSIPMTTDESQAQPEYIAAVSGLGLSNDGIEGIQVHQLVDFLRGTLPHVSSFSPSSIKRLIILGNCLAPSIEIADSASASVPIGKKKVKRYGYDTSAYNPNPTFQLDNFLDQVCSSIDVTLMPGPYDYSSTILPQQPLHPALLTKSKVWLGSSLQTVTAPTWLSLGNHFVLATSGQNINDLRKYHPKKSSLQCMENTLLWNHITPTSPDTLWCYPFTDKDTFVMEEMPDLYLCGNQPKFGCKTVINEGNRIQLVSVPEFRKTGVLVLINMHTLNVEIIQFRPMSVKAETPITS

[4] = biological target: T4, Cdc1 (fission yeast DNA polymerase delta B-subunit), wild type (Schizosaccharomyces pombe, UniProt P87324 1-462)
T4 construct: DNA polymerase delta B-subunit Cdc1, S. pombe; cdc1+ cDNA on a 1.5 kb BamHI fragment from pBTM116-Cdc1, ORF 1386 bp; also called WT; LexA-Cdc1; source: yeast two-hybrid fusion, in S. cerevisiae CTY10-5d
T4 sequence (looked up): T3 sequence (looked up) with A328N

two-hybrid beta-galactosidase activity, % of wild-type Cdc1 [1]: 88% | two-hybrid beta-galactosidase activity, % of wild-type Cdc1 [2]: < 1% | two-hybrid beta-galactosidase activity, % of wild-type Cdc1 [3]: 37% | two-hybrid beta-galactosidase activity, % of wild-type Cdc1 [4]: 100%
B1: Cdc27 (fission yeast DNA polymerase delta C-subunit) (natural protein, Schizosaccharomyces pombe, UniProt P30261 1-372, looked up)
chain: MEEWRNFLDIKVINESSLVTVDNLSLQLDISSEKAQEYLNMFYQGNDFLYPIYLIHGQPIDDEINLEIDEESQPISNFPVLQYILCDKSSLQEKQSRLKSGYKTVIFALSSAPLSDFDELLPAVYEIREKDVLYKKEDADKYGFIFNENSVPRVLKKAPSTHSPQLSVPSKTSTIDKTDTRSTEKTKGKDIFSNARNQKGNSSRKNKKAPLENHKEKEPLLPKEEKLSEQAKRERDDLKNIMQLEDESVSTTSVHDSEDDNLDSNNFQLEIGTEAKSAAPDEPQEIIKSVSGGKRRGKRKVKKYATTKDEEGFLVTKEEEVWESFSEDENISTGTSNVVRNKPTTVNIATKKKNTAQSKPQQKSIMSFFGKK
notes: DNA polymerase delta C-subunit Cdc27, S. pombe; prey plasmid pGAD2F-Cdc27; also called pGAD2F-Cdc27; source: yeast two-hybrid fusion, in S. cerevisiae CTY10-5d
